Experimental data as given in US20100311844A1, “Spontaneously Forming Ellipsoidal Phospholipid Unilamellar Vesicles” (priority 2006, published 2010).
Entries after “also recorded” stand apart in the source; their conditions may differ.

T1: SapC induced membrane fusion (Homo sapiens, UniProt P07602)
T1 sequence (P07602 311-390 limits assumed): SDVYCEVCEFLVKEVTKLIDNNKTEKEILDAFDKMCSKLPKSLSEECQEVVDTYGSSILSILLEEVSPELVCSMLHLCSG


Legend:
[1] = AFM, supported membranes; cited from earlier work
[2] = SANS of non-doped, H1-, H2- and SapC-doped DOPS/DPPC/DHPC mixtures (modified Guinier plot, ellipsoidal shell model fit); format: physicochemical; conditions: for effect of peptide on bilayer stability: SANS result; for effect of peptide on ULV size and size distribution / effect of peptide on membrane thickness: peptide 62.5 μM
Description: For preparation of liposomes containing protein, SapC was over expressed in E. coli cells using the IPTG-inducing pET system, and His-tag proteins were eluted from nickel columns. After dialysis, the proteins were further purified by HPLC chromatography as follows: The C4 reverse phase column was equilibrated with 0.1% trifluoroacetic acid (TFA) for 10 minutes, then the proteins were eluted in a linear (0-100%) gradient of 0.1% TFA in acetonitrile over 60 minutes. The major protein peak was collected and lyophilized, while protein concentrations were determined as described previously. H1 (YCEVCEFLVKEVTKLID) and H2 (EKEILDAF DKMCSKLPK) peptides were synthesized by SynPep Corp. (California, USA) and dissolved in D2O at a concentration of 1.5 mg/mL. The 0.1 wt. % lipid solution with [DOPS]/[DPPC]=10 and ([DPPC]+[DOPS]/DHPC=4 was then added to the two peptide solutions (1.5 mg/mL) at a volume ratio of 12:1, and the SapC solution with a volume ratio of 1:1, yielding a final peptide (or SapC) concentration of 62.5 μM, (molar ratio of [lipid]/[peptide]=22/1) a concentration higher than the SapC required to induce membrane destabilization. A sample containing only 6.25 μM of SapC ([lipid]/[SapC]=220/1) was also prepared for comparison purposes.
To determine the structure and stability of the resulting liposomes, the homogenized 10 wt. % solutions are first progressively diluted into 5, 2, 1, 0.5 and 0.1 wt. % samples. Prior to DLS measurements, the 0.1 wt. % stock lipid samples are diluted 5, 50 and 200 fold, and are analyzed using an N4^+ particle sizer (Coulter, Miami, Fla.). Using this method, it was determined that diluting the system had no effect on the size of the particles. For SANS experiments, the same sample preparation protocol was applied to the [DOPS]/[DPPC]=10 sample except that D2O (99.9%, Chalk River Laboratories, Chalk River, ON), instead of H2O, was used to obtain a sample with a total lipid concentration of 0.5 wt. %. The 0.5 wt. % sample was then further diluted into 0.1 and 0.05 wt. % mixtures using an acidic buffer composed of equal-volumes of 0.1N sodium acetate (NaAc) and 0.1N acetic acid (HAc).
SANS experiments were carried out on the 30 m NG7 SANS instrument located at the National Institute of Standards and Technology (NIST) Center for Neutron Research (NCNR, Gaithersburg, Md., USA). 8.09 Å wavelength (λ) neutrons, a neutron focusing lens and a long sample-to-detector distance (SDD=15.3 m) were used to reach the lowest scattering vectors [q=4π/λ·sin(θ/2), where θ is the scattering angle]. Two other SDD (5 and 1 m) were also used, covering a combined q range from 0.002 to 0.35 Å^−1 for all three SDD. Raw 2-D data were corrected for detector sensitivity, background, empty cell scattering and sample transmission. The corrected data were then circularly averaged, around the beam center, yielding the customary 1-D data. […] The incoherent plateau was determined by averaging the intensity of 10-20 high q data points and then subtracted from the reduced data.
For q>0.06 Å^−1 the differences in intensity among the three data sets (FIG. 2) are indistinguishable. Analysis of a modified Guinier plot^30 (also known as Kratky-Porod plot) applied to all three samples, where ln(I·q^2) has a linear relationship with q^2 in the range between 5×10^−3 and 2.5×10^−2 Å^−2, indicate the existence of a lamellar structure. […] The lines represent the best-fits to the data. The bilayer thickness is then derived from the square root of the slope multiplying by √{square root over (12)}.
The model for a unilamellar tri-axial ellipsoidal vesicle is depicted as an ellipsoidal shell (FIG. 4) with different core lengths along the three prime axes, acore, bcore and ccore (acore≦bcore≦ccore). The shell lengths along the axes, ashell, bshell and cshell, are defined as (acore+l), (bcore+l) and (ccore+l), respectively, where l is the bilayer thickness. […]

[3] = molecular target: T1, SapC induced membrane fusion; conditions: reported by Wang et al.; cited from earlier work

| Molecule | effect on destabilization and restructuring of lipid membranes [1] | effect of peptide on bilayer stability [2] | effect of peptide on ULV size and size distribution [2] | effect of peptide on membrane thickness [2] | inhibition of SapC induced membrane fusion [3] | effect of SapC on ULV ([2]; SapC 6.25 μM, [lipid]/[SapC]=220/1) | effect of SapC on ULV ([2]; SapC 62.5 μM, [lipid]/[SapC]=22/1, acetate D2O buffer) |
| --- | --- | --- | --- | --- | --- | --- | --- |
| YCEVCEFLVKEVTKLID [H1, helical domain peptide of SapC, synthesized by SynPep Corp] | neither H1 nor H2 alone have significant influence on membrane structure | do not destabilize the bilayer morphology | does not appear to modify ULV size or their size distribution | small decreases to the membrane thickness | can inhibit SapC induced membrane fusion | – | – |
| EKEILDAFDKMCSKLPK [H2, helical domain peptide of SapC, synthesized by SynPep Corp] | neither H1 nor H2 alone have significant influence on membrane structure | do not destabilize the bilayer morphology | shifts the equilibrium between the two ULV aggregates present | small decreases to the membrane thickness | can inhibit SapC induced membrane fusion | – | – |
| SapC: human Saposin C, over expressed in E. coli as His-tag protein, HPLC purified (protein, His-tag, human Saposin C, over expressed in E. coli as His-tag protein, HPLC purified) SDVYCEVCEFLVKEVTKLIDNNKTEKEILDAFDKMCSKLPKSLSEECQEVVDTYGSSILSILLEEVSPELVCSMLHLCSG | can destabilize and restructure the acidic membrane | – | – | – | – | ULV structure is unperturbed; also recorded: do not appear to perturb the size of ULV or their membrane structure | promotes aggregation of ULV |
